Target: CFP/B-Lc (BoNT/B protease fused to CFP) (Clostridium botulinum, BoNT type B; …, UniProt P10844)
Experiment: pull-down

B1: YFP/B10 (VHH BLc-B10 fused to an amino terminal streptavidin binding peptide and YFP) (VHH)
VHH: QLQLVESGGGMVQPGGSLRLSCAASGFTFSTYDMSWVRQAPGKGPEWVSIINAGGGSTYYAASVKGRFAISRDNAKNTLYLQMNNLKPEDTALYYCARVASYYCRGYVCSPPEFDYWGQGTQVTVSS
B1: binds.
